Paper PMC6802964

Key:
Assay in all cases: other fluorescence titration; change of the CyPet-YPet FRET signal of the IQ-FRET protein (1 µM by the methods, 0.5 µM by the legend) with varying concentrations of Cam1 or Cam2; 140 mM KCl, 20 mM MOPS pH 7.0, with or without 2 mM MgCl2, 2 mM EGTA (absence of calcium)
[1] = molecular target: CyPet–Myo1^IQ12S742D–YPet FRET reporter protein (S742D phosphomimetic) (S. pombe)
[2] = molecular target: T1, CyPet–Myo1^IQ12–YPet FRET reporter protein (S. pombe)
T1 sequence (Q9Y7Z8 whole entry, looked up): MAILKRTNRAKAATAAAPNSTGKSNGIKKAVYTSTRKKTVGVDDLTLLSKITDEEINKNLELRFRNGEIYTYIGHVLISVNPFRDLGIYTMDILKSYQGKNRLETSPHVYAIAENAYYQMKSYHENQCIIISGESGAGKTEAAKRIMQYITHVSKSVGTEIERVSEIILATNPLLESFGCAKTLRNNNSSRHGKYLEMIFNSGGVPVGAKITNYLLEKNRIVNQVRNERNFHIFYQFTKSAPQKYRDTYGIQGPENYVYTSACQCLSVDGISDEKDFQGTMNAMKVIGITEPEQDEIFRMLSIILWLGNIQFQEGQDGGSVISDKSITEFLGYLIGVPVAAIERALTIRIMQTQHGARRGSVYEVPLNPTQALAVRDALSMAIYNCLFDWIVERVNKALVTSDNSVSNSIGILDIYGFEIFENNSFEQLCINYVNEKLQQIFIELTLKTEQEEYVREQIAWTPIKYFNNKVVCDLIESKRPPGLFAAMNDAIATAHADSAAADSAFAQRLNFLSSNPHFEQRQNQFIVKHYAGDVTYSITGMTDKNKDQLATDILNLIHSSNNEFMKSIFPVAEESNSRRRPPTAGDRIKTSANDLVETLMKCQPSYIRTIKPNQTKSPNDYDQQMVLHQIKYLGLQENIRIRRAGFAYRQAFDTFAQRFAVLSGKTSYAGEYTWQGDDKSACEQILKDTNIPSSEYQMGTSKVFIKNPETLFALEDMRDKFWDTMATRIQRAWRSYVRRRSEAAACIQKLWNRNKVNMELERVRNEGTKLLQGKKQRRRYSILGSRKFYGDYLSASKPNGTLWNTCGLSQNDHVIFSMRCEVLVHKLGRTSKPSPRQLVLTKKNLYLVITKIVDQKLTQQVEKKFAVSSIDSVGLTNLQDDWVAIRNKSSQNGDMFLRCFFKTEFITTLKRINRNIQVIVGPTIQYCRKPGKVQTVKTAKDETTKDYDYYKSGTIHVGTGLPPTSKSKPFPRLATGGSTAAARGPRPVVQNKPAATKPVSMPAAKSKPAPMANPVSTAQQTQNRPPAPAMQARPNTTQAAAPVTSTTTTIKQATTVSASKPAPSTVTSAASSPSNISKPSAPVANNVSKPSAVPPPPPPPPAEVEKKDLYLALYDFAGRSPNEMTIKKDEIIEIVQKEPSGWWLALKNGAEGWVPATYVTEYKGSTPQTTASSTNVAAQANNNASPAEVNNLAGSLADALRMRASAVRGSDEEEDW

[3] = molecular target: T2, CyPet–Myo1^IQ1–YPet FRET reporter protein (S. pombe)
T2 sequence (Q9Y7Z8 whole entry, looked up): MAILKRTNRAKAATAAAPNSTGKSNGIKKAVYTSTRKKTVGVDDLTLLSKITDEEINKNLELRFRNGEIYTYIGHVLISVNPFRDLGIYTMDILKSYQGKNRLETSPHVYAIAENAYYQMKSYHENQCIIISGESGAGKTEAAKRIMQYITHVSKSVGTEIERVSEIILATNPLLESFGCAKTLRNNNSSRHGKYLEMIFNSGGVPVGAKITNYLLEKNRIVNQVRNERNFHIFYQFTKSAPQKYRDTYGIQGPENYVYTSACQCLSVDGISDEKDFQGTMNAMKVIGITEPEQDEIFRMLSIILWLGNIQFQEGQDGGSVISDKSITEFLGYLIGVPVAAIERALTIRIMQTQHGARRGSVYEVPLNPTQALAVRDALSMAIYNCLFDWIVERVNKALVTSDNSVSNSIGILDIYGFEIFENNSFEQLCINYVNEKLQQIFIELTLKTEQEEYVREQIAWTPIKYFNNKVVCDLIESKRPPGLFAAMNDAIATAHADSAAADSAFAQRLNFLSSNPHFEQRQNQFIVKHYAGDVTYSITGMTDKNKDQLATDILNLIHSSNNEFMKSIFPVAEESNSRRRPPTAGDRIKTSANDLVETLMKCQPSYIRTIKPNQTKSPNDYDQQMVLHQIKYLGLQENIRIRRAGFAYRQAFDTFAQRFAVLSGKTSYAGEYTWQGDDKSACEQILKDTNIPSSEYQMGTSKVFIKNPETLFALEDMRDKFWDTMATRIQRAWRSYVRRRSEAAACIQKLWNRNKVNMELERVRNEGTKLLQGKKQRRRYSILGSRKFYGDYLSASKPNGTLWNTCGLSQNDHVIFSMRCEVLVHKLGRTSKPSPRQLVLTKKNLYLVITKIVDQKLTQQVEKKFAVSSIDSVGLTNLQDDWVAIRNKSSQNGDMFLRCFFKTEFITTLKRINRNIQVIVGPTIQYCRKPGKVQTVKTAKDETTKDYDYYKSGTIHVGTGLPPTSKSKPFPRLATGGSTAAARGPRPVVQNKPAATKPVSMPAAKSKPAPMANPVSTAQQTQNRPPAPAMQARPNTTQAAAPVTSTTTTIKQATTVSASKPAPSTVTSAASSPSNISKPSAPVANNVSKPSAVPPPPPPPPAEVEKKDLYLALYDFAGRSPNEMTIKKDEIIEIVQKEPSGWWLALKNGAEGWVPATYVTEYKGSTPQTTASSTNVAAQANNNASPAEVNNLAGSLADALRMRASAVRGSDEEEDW

drop in interaction against wild type Myo1^IQ12–FRET [1]: 50%
KD of the binding event that gives 70% of the signal change [2]: 1100 nM
stoichiometry N [2]: 2
Kd [3]: 400 nM
B1: Cam2 (calcium-insensitive calmodulin-like protein) (natural protein)
chain: MPASKEQTDEMKEAFVLYDIDKDGLIPTSHVGSVLRSLGINVTDAELAKLSNELGDAIDEKKFMSFVSNKLRETESEEEYIKAFRVFDKDNSGYIETAKFADYMKTLGEKLSDNEVQLMVQEADPTNSGSFDYYDFVQRIMAK
